# Experimental data reported in article PMC12301328, “Identification of a preferred DNA binding sequence and novel regulon member for CadR in Pseudomonas aeruginosa PAO1”.
# T1: PaCadR (Pseudomonas aeruginosa PAO1, UniProt Q9HXV1 1-156)
# T1 sequence: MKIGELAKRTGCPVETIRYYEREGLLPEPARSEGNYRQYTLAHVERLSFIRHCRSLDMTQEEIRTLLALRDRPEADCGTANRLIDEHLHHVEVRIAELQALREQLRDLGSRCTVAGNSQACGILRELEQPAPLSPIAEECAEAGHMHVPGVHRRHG
# Assays:
# [1] = target: CadR from Pseudomonas aeruginosa PAO1 (PaCadR) (Pseudomonas aeruginosa PAO1); assay: not stated; purified PaCadR in solution (Supplementary Figure S7); method not given
# [2] = target: CadR from Pseudomonas aeruginosa PAO1 (PaCadR) (Pseudomonas aeruginosa PAO1); assay: native gel or EMSA; adaptation of a Ferguson plot of the DNA-bound PaCadR species on native PAGE (Supplementary Figure S6); PaCadR bound to its consensus DNA
# PaCadR [3] = target: T1, PaCadR; assay: BLI; no added metal; EMSA: 1X CutSmart buffer, 1 mM DTT, 3 mM EDTA, 5 nM each DNA, 37 C, 20 min; BLI: 20 mM Tris-Cl pH 7.5, 100 mM NaCl, 0.01% Tween-20, 1 mM DTT, 37 C; conditions: protein: recombinant; chain copies: 2; label: 5' biotin on ST2R strand; blunt
# PaCadR [4] = target: T1, PaCadR; assay: EMSA; 20-80 nM PaCadR; EMSA: 1X CutSmart buffer, 1 mM DTT, 3 mM EDTA, 5 nM each DNA, 37 C, 20 min; BLI: 20 mM Tris-Cl pH 7.5, 100 mM NaCl, 0.01% Tween-20, 1 mM DTT, 37 C; conditions: protein: recombinant; chain copies: 2; label: 5' IRDye-800 on ConL strand; blunt
# PaCadR [5] = target: T1, PaCadR; assay: EMSA; 50 nM PaCadR; not significantly different from WT; EMSA: 1X CutSmart buffer, 1 mM DTT, 3 mM EDTA, 5 nM each DNA, 37 C, 20 min; BLI: 20 mM Tris-Cl pH 7.5, 100 mM NaCl, 0.01% Tween-20, 1 mM DTT, 37 C; conditions: protein: recombinant; chain copies: 2; label: 5' IRDye-700 on ST2R strand; blunt
molecule,measurement,setting,value
CadR from Pseudomonas aeruginosa PAO1 (PaCadR) (from UniProt A0A0H2ZEP1 1-156) (natural protein),stoichiometry N,[1],2
same,stoichiometry N,[2],2
Control (BLI) (dsDNA) DNA 1: CTAGGAATTCGTGCAGAGGTGACGTCATAGAATTCGCATCCCTCCAGAAGCTTGGAC DNA 2: GTCCAAGCTTCTGGAGGGATGCGAATTCTATGACGTCACCTCTGCACGAATTCCTAG,binding result,PaCadR [3],no binding
Control (EMSA) (dsDNA) DNA 1: CCTCTCTATGGGCAGTCGGTGATCTAGGAATTCGTGCAGAGGTGACGTCATAGAATTCGCATCCCTCCAGAAGCTTGGAC DNA 2: GTCCAAGCTTCTGGAGGGATGCGAATTCTATGACGTCACCTCTGCACGAATTCCTAGATCACCGACTGCCCATAGAGAGG,binding result,PaCadR [4],no binding
ST2_CadR_mt12 (dsDNA) DNA 1: CTAGGAATTCGTGCAGAGGTGAAACCCTGTAGTGACTACAGGGTTCATCCCTCCAGAAGCTTGGAC DNA 2: GTCCAAGCTTCTGGAGGGATGAACCCTGTAGTCACTACAGGGTTTCACCTCTGCACGAATTCCTAG,binding result,PaCadR [5],binds
